Source: paper PMC10849960 (2023)
Ends that are not written are not given here.

Legend:
411 [1] = test: FP
29 [2] = test: FP
361 [3] = test: FP
Mcl-1 [4] = target: T1, Mcl-1 (UniProt Q07820 1-350); test: ITC
T1 chain: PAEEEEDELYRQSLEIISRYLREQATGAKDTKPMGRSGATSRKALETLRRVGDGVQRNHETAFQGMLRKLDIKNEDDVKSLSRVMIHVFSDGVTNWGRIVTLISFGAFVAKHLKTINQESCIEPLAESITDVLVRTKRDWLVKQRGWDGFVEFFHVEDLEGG

Mcl-1 [5] = target: T1, Mcl-1; test: FP
411 [6] = test: ITC
29 [7] = test: ITC
[8] = target: Hallucinated Bid binder (7 nM); test: ITC
361 [9] = test: ITC; 10 °C
[10] = target: best parametrically designed PTH binder; test: split NanoBiT

Binder | Kd 411 [1] | Kd 29 [2] | Kd 361 [3] | Kd (Mcl-1 [4]) | Kd (Mcl-1 [5]) | Kd 411 [6] | Kd 29 [7] | Kd [8] | Kd 361 [9] | Kd [10]
SESQEDIIRNIARHLAQVGDSMDRSIPPGLVNGL (also: fluorescently labelled (label and position not shown)) [Bid BH3 peptide] | 23 nM | 40 nM | 490 nM | 770 nM | 106 nM | 410 nM | 180 nM | 25 nM | 1200 nM | –
SVSEIQLMHNLGKHLNSMERVEWLRKKLQDVHNF (also: fluorescently labelled (label and position not shown)) [parathyroid hormone (PTH)] | – | – | – | – | – | – | – | – | – | > 1000 nM
